Experiment in all cases: ITC
A general note: In ITC the heat of successive injections is recorded.

In test [1] the target is T1, Sc eIF4E (residues T25–L213), His6 tag removed (Saccharomyces cerevisiae, UniProt P07260 25-213).
T1 sequence (looked up): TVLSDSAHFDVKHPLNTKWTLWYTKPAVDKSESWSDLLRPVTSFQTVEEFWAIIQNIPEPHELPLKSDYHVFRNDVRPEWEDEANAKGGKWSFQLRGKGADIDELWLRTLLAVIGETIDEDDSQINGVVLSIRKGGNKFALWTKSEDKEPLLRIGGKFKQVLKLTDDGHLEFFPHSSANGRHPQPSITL

Test [2] addresses T2, Sc eIF4E Δ34 (residues V35–L213), His6 tag removed (Saccharomyces cerevisiae, UniProt P07260 35-213).
T2 sequence (looked up): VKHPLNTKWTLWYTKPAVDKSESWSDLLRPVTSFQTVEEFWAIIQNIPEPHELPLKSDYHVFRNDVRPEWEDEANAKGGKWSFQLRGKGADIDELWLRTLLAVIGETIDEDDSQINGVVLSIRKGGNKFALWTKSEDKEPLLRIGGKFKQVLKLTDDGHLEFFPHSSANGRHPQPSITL

The target in test [3] is Sc eIF4G (residues V448–N500; C+L+NC)-GB1 (Saccharomyces cerevisiae, UniProt P39935 448-500).

Usually Kd stands for the constant that tells how readily two partners part at equilibrium. On to TDPITNYKPMDLQYKTYAYSMNELYHLKPSLA (domain or fragment, Saccharomyces cerevisiae, UniProt P36041 91-122, looked up) [Sc Eap1p (T91–A122; N_(short)+C)-GB1], for which the Kd in test [1] was determined as 12.9 ± 0.9 nM; in test [2] it was 8.8 ± 0.5 nM.

In the case of KKTAMLNFSSLTDPITNYKPMDLQYKTYAYSMNELYHLKPSLA (domain or fragment, Saccharomyces cerevisiae, UniProt P36041 80-122, looked up) [Sc Eap1p (residues K80–A122; N+C peptide)-GB1], in test [1], the Kd turned out to be 8 ± 4 nM.

Take GPHMDLQYKTYAYSMNELYHLKPSLA (domain or fragment) [Sc Eap1p canonical motif (C)-GB1]: the Kd in test [1] came to 3400 ± 300 nM.

B1: Sc eIF4E II-AA lateral surface mutant, His6 tag removed (ITC) (domain or fragment)
chain: GPHMTVLSDSAHFDVKHPLNTKWTLWYTKPAVDKSESWSDLLRPVTSFQTVEEFWAAIQNAPEPHELPLKSDYHVFRNDVRPEWEDEANAKGGKWSFQLRGKGADIDELWLRTLLAVIGETIDEDDSQINGVVLSIRKGGNKFALWTKSEDKEPLLRIGGKFKQVLKLTDDGHLEFFPHSSANGRHPQPSITL
For the molecule B1, binding in test [3] was characterised by a dissociation constant (Kd) of 1020 ± 90 nM.

With SASYEEDPLISELVRSLPKRKFWRLRMG (domain or fragment, Saccharomyces cerevisiae, UniProt P36041 123-150, looked up) [Sc Eap1p L+NC fragment (residues S123–G150)-GB1], binding in test [1] was put at a Kd of 1000 ± 100 nM.

The values are drawn from paper PMC6061780 (Nucleic Acids Research, 2018).
